Data on 2 molecules can be found in US20150337042A1 (AbbVie / Abbott, published 2015).

Test [1] deals with T1, truncated wild type EGFR 1-525 (EGFR1 (1-525)-SRGPF-Myc-NMHTG-6His) (human, UniProt P00533 25-525).
T1 construct: the signal peptide is left out; not shown: Myc tag
The experiment in a line: SPR (Biacore T100). Background: SPR reads the build-up and loss of mass on a sensor chip optically.

Test [2] deals with T2, EGFRvIII extracellular domain (EGFR (1-29)-G-(298-645)-LESRGPF-Myc-NMHTG-6His) (human, UniProt P00533 298-641).
T2 construct: also called recombinant EGFRvIII; not shown: Myc tag
The experiment in a line: SPR (Biacore T100).

Test [3] deals with T1, truncated wild type EGFR 1-525 (EGFR1 …). Kind of test: SPR (Biacore), antibody captured via anti-human Fc, antigen injected. The method, then:
(§1) Biacore analysis was performed using a Biacore T100 with a CM5 sensory chip, and test antibodies were captured via anti-human Fc antibodies that were amino coupled to the chip using a standard amine coupling kit according to manufacturer's instructions (GE healthcare). Briefly, a CM5 chip surface was activated with EDC/NHS. Goat anti-human Fc specific polyclonal antibody (Thermo Fisher Scientific Inc., Rockford, Ill.) was diluted to 25 μg/mL in 10 mM sodium acetate (pH 4.5) and injected over the activated surface to achieve immobilization. Unreacted moieties on the biosensor surface were blocked with ethanolamine. The Biacore T100 is a surface plasmon resonance based biosensor for detecting, characterizing and quantifying bimolecular interactions, including the interactions between an antibody and its antigen. Antigen was injected at 80 μL/minute for 3 minutes and dissociation was followed for 15 minutes.

Test [4] addresses T2, EGFRvIII extracellular domain (EGFR …). The description is as above. As to the method:
as §1

Another test concerns the target T3, EGFRvIII on U87MG cells (human, UniProt P00533 298-1210).
T3 construct: also called de2-7 EGFR
The experiment in a line: competition FACS on U87MG de2-7 cells expressing EGFRvIII; competitor Ab1-FITC at 100 nM.

In test [5] the target is T4, wild type human EGFR on cells (A431, NHEK, SCC-15, H292) (human, UniProt P00533 25-1210).
T4 construct: Endogenous receptor of human cell lines and keratinocytes said to express wild type EGFR; also called wild type EGFR; wtEGFR
The experiment in a line: FACS binding to normal human epidermal keratinocytes (NHEK), AlexaFluor 488 secondary antibody. The method, then:
NHEK cells express wild type EGFR.
Cells were harvested when approximately 80% confluent using trypsin, neutralized and washed once in PBS/1% FBS (FACS buffer) then resuspended at 2.5×10⁶ cells/mL in FACS buffer. 100 μL of cells/well were added to a round bottom 96-well plate. 10 μL of a 10x concentration of Ab (final concentrations are listed in the Figures) was added and plate was incubated at 4° C. for one hour. Wells were washed twice with FACS buffer then resuspended in 50 μL of secondary Ab (AlexaFluor 488) diluted in FACS buffer. The plate was incubated at 4° C. for one hour then washed twice with FACS buffer. Cells were then resuspended in 100 μL of PBS/1% formaldehyde and analyzed on a Becton Dickinson LSRII flow cytometer. Data was analyzed using WinList flow cytometry analysis software.
(In general: In flow cytometry, cells or beads pass a laser one at a time.)

Test [6] has as its target T4, wild type human EGFR on cells (A431, …). The experiment in a line: cell-based or functional assay.
Test [7] deals with T1, truncated wild type EGFR 1-525 (EGFR1 …). The experiment in a line: SPR (summary of FIG. 6).

A word on the Kd: it is the free concentration of one partner at which half of the binding sites on the other are occupied at equilibrium, for simple one-to-one binding. A higher Kd goes with a looser complex. The koff is a measure of how fast the partners let go of each other. By kon is commonly meant the rate constant with which the complex forms. A word on the EC50 (read off the curve): it is the concentration giving half of the maximal effect. Lower therefore signals greater potency.

B1: Antibody G (AbG) (antibody, V domains shown)
VH: EVQLQESGPGLVKPSQTLSLTCTVSGYSISNDFAWNWIRQLPGKGLEWMGYISYKGNTRYQPSLKSRITISRDTSKNQFFLKLNSVTAADTATYYCVTASRGLPYWGQGTLVTVSS
VL: DIQMTQSPSSMSVSVGDRVTITCHSSQDITYNIGWLQQKPGKSFKGLIYHGANLDDGVPSRFSGSGSGTDYTLTISSLQPEDFATYYCVQYDEFPWTFGGGTKLEIK
notes: Full length IgG1
In the case of B1, in test [1], the “fold increase in affinity relative to Ab1” value amounted to 263 fold. In addition, the “fold increase in binding relative to Ab1” value in test [2] was greater than 47 fold. In test [3], this molecule displayed a Kd of 8.6 nM, an off-rate (koff) of 5.88e-05 s⁻¹ and a kon of 6800 M⁻¹ s⁻¹. In test [4], the “KD ratio (Ab1/variant Ab)” value was determined as 47.2, the Kd is 0.2 nM, the koff amounted to 7.44e-05 s⁻¹ and the kon worked out at 374000 M⁻¹ s⁻¹. Moreover, the “IC50 (read off the curve)” value in the test with EGFRvIII on U87MG cells is roughly 20 nM. For the same molecule, the “EC50 (read off the curve)” value in test [5] is roughly 40 nM.

B2: Antibody P (AbP) (antibody, V domains shown)
VH: EVQLQESGPGLVKPSQTLSLTCTVSGYSISHDFAWNWIRQPPGKGLEWMGYISYSGNTRYQPSLKSRITISRDTSKNQFFLKLNSVTAADTATYYCVTASWGLPWWGQGTLVTVSS
VL: DIQMTQSPSSMSVSVGDRVTITCHSSQDINMNVGWLQQKPGKSFKGLIYHGAILDDGVPSRFSGSGSGTDYTLTISSLQPEDFATYYCVQYAEFPWTFGGGTKLEIK
notes: Full length IgG1
Take B2: the “IC50 of inhibition of EGFR signaling in A431 cells (phospho-EGFR ELISA)” value in test [6] was greater than 40 nM. Further, in test [7], the koff is less than 0.0001 s⁻¹. Also, in test [3], the “KD ratio (Ab1/variant Ab)” value worked out at 106, the Kd turned out to be 21 nM, the koff came out at 7.67e-05 s⁻¹ and the kon came to 3580 M⁻¹ s⁻¹. Further, in test [4], the “KD ratio (Ab1/variant Ab)” value was found to be 8.2, binding was put at a Kd of 1.2 nM, the koff was 0.000135 s⁻¹ and the kon is 117000 M⁻¹ s⁻¹. In addition, the “IC50 (read off the curve)” value with EGFRvIII on U87MG cells was roughly 30 nM. In addition, the “EC50 (read off the curve)” value in test [5] is roughly 30 nM.
